Data published in patent publication US20220275417A1 (BARCODEBODY, published 2022).

Assays:
[1] = biological target: T1, CD4 on the surface of HEK293 cells transfected with pCAGGS-CD4-myc (UniProt P01730 26-458, limits assumed); test: immunofluorescence staining of fixed CD4-expressing HEK293 cells, anti-FLAG-AF488 secondary
T1 construct: whole, on cells; Cells were fixed with 4% paraformaldehyde before staining; also called CD4 surface expressing cells

[2] = biological target: T2, recombinant human sCD4 CF (manufactured by R&D Systems) (human, UniProt P01730 26-390, limits assumed); test: simultaneous binding assay on CD4-immobilized magnetic beads, barcode cleaved by enterokinase and quantified by LC-MS/MS
T2 construct: Immobilized on the Biacore sensor chip; also called recombinant CD4; CD4 antigen

[3] = biological target: T2, recombinant human sCD4 CF (manufactured …); test: SPR, Biacore T-200, CD4 immobilized on chip, as in Example 2
[4] = biological target: T2, recombinant human sCD4 CF (manufactured …); test: SPR, Biacore T-200, antigen immobilized on chip, nanobody as analyte

Binder | binding result [1] | binding result [2] | Kd [3] | koff [3] | kon [3] | Kd [4] | koff [4] | kon [4]
anti-GFP-FLAG-barcode 2 (VHH, also called anti-GFP nanobody) VHH: QVQLVESGGALVQPGGSLRLSCAASGFPVNRYSMRWYRQAPGKEREWVAGMSSAGDRSSYEDSVKGRFTISRDDARNTVYLQMNSLKPEDTAVYYCNVNVGFEYWGQGTQVTVSS | no binding (tested: 3.3 µg/ml) | no binding (tested: 0.1 µM) | – | – | – | – | – | –
anti-CD4-FLAG (VHH, Secreted from Pichia pastoris with the alpha-factor signal, which is cleaved during secretion; also called Anri-CD4-FLAG; anti-CD4 nanobody with no barcode) VHH: EVQLVESGGGSVQPGGSLTLSCGTSGRTFNVMGWFRQAPGKEREFVAAVRWSSTGIYYTQYADSVKSRFTISRDNAKNTVYLEMNSLKPEDTAVYYCAADTYNSNPARWDGYDFRGQGTQVTVSS | – | – | 26 nM | 0.0037 s⁻¹ | 140000 M⁻¹ s⁻¹ | 42 nM | 0.0054 s⁻¹ | 68000 M⁻¹ s⁻¹
anti-CD4 with barcode 4-3 (VHH, secreted from Pichia pastoris) VHH: EVQLVESGGGSVQPGGSLTLSCGTSGRTFNVMGWFRQAPGKEREFVAAVRWSSTGIYYTQYADSVKSRFTISRDNAKNTVYLEMNSLKPEDTAVYYCAADTYNSNPARWDGYDFRGQGTQVTVSS | – | – | 26 nM | 0.0036 s⁻¹ | 140000 M⁻¹ s⁻¹ | – | – | –
anti-CD4 with barcode 4-4 (VHH, secreted from Pichia pastoris) VHH: EVQLVESGGGSVQPGGSLTLSCGTSGRTFNVMGWFRQAPGKEREFVAAVRWSSTGIYYTQYADSVKSRFTISRDNAKNTVYLEMNSLKPEDTAVYYCAADTYNSNPARWDGYDFRGQGTQVTVSS | – | – | 25 nM | 0.0029 s⁻¹ | 120000 M⁻¹ s⁻¹ | – | – | –
anti-CD4-FLAG-barcode 1 (VHH, Secreted from Pichia pastoris with the alpha-factor signal, which is cleaved during secretion; also called anti-CD4 nanobody) VHH: EVQLVESGGGSVQPGGSLTLSCGTSGRTFNVMGWFRQAPGKEREFVAAVRWSSTGIYYTQYADSVKSRFTISRDNAKNTVYLEMNSLKPEDTAVYYCAADTYNSNPARWDGYDFRGQGTQVTVSS | – | – | – | – | – | 52 nM | 0.004 s⁻¹ | 77000 M⁻¹ s⁻¹
anti-CD4 with barcode 4-1 (VHH, secreted from Pichia pastoris) VHH: EVQLVESGGGSVQPGGSLTLSCGTSGRTFNVMGWFRQAPGKEREFVAAVRWSSTGIYYTQYADSVKSRFTISRDNAKNTVYLEMNSLKPEDTAVYYCAADTYNSNPARWDGYDFRGQGTQVTVSS | – | – | 21 nM | 0.003 s⁻¹ | 140000 M⁻¹ s⁻¹ | – | – | –
anti-CD4 with barcode 4-6 (VHH, secreted from Pichia pastoris) VHH: EVQLVESGGGSVQPGGSLTLSCGTSGRTFNVMGWFRQAPGKEREFVAAVRWSSTGIYYTQYADSVKSRFTISRDNAKNTVYLEMNSLKPEDTAVYYCAADTYNSNPARWDGYDFRGQGTQVTVSS | – | – | 28 nM | 0.0033 s⁻¹ | 120000 M⁻¹ s⁻¹ | – | – | –
anti-CD4 with barcode 4-8 (VHH, secreted from Pichia pastoris) VHH: EVQLVESGGGSVQPGGSLTLSCGTSGRTFNVMGWFRQAPGKEREFVAAVRWSSTGIYYTQYADSVKSRFTISRDNAKNTVYLEMNSLKPEDTAVYYCAADTYNSNPARWDGYDFRGQGTQVTVSS | – | – | 19 nM | 0.0029 s⁻¹ | 160000 M⁻¹ s⁻¹ | – | – | –
anti-CD4 with barcode 4-7 (VHH, secreted from Pichia pastoris) VHH: EVQLVESGGGSVQPGGSLTLSCGTSGRTFNVMGWFRQAPGKEREFVAAVRWSSTGIYYTQYADSVKSRFTISRDNAKNTVYLEMNSLKPEDTAVYYCAADTYNSNPARWDGYDFRGQGTQVTVSS | – | – | 24 nM | 0.0028 s⁻¹ | 110000 M⁻¹ s⁻¹ | – | – | –
anti-CD4 with barcode 4-5 (VHH, secreted from Pichia pastoris) VHH: EVQLVESGGGSVQPGGSLTLSCGTSGRTFNVMGWFRQAPGKEREFVAAVRWSSTGIYYTQYADSVKSRFTISRDNAKNTVYLEMNSLKPEDTAVYYCAADTYNSNPARWDGYDFRGQGTQVTVSS | – | – | 24 nM | 0.0028 s⁻¹ | 180000 M⁻¹ s⁻¹ | – | – | –
anti-CD4 with barcode 4-2 (VHH, secreted from Pichia pastoris) VHH: EVQLVESGGGSVQPGGSLTLSCGTSGRTFNVMGWFRQAPGKEREFVAAVRWSSTGIYYTQYADSVKSRFTISRDNAKNTVYLEMNSLKPEDTAVYYCAADTYNSNPARWDGYDFRGQGTQVTVSS | – | – | 28 nM | 0.0028 s⁻¹ | 100000 M⁻¹ s⁻¹ | – | – | –
